The target of the data set is internally quenched peptide probe (MCA)-Gly-Ser-Ala-Ile-Ala-Leu-Tyr-Gly-Gly-Ser-Lys (DNP)-D-Arg with CM AIALY (SEQ ID NO: 5).

B1: human recombinant MMP2 (R&D Systems, catalog No: 902-MP) (protein)
chain: YNFFPRKPKWDKNQITYRIIGYTPDLDPETVDDAFARAFQVWSDVTPLRFSRIHDGEADIMINFGRWEHGDGYPFDGKDGLLAHAFAPGTGVGGDSHFDDDELWTLGEGQVVRVKYGNADGEYCKFPFLFNGKEYNSCTDTGRSDGFLWCSTTYNFEKDGKYGFCPHEALFTMGGNAEGQPCKFPFRFQGTSYDSCTTEGRTDGYRWCGTTEDYDRDKKYGFCPETAMSTVGGNSEGAPCVFPFTFLGNKYESCTSAGRSDGKMWCATTANYDDDRKWGFCPDQGYSLFLVAAHEFGHAMGLEHSQDPGALMAPIYTYTKNFRLSQDDIKGIQELYGASPDIDLGTGPTPTLGPVTPEICKQDIVFDGIAQIRGEIFFFKDRFIWRTVTPRDKPMGPLLVATFWPELPEKIDAVYEAPQEEKAVFFAGNEYWIYSASTLERGYPKPLTSLGLPPDVQRVDAAFNWSKNKKTYIFAGDKFWRYNEVKKKMDPGFPKLIADAWNAIPDNLDAVVDLQGGGHSYFFKGAYYLKLENQSLKSVKFGSIKSDWLGC
In the case of B1, the Probe Cleavage (kcat/KM) came to 39000 M⁻¹ s⁻¹ and the Probe Cleavage (pM/s) was 135 pM/s.

Source of the values: patent US20260049148.
